The target in test [1] is MarR, regulator of multiple antibiotic resistance of Escherichia coli (wild type, expressed from pMarR-WT) (Escherichia coli). As to the kind of experiment: X-ray co-crystal structure of MarR dimer with salicylate.
In test [2] the target is T1, MarR (Escherichia coli, UniProt P27245). To be noted: at millimolar concentrations; cited from earlier work.
The target in test [3] is T1, MarR. The following applies: at millimolar concentrations; cited from earlier work. This is another data set of the same source.

T1 sequence (P27245 whole entry): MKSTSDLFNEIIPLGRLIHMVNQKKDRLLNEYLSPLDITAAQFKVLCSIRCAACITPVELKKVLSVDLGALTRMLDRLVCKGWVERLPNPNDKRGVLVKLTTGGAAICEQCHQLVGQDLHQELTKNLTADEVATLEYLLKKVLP

As to “MarR, regulator of multiple antibiotic resistance of Escherichia coli (wild type, expressed from pMarR-WT)”, in test [1], the buried surface area (N-/C-terminal hydrophobic core) turned out to be 3570 Å^2 and the total buried surface area came to 3700 Å^2.
`O=C([O-])c1ccccc1O.[Na+]` [sodium salicylate]: the “inhibition of MarR activity in vitro” value on MarR [2] was “inhibit MarR activity”. Further, the “inhibition of MarR activity in whole cells” value at MarR [3] is on record as “inhibit MarR activity”.

Values taken from patent publication US7202339B2, “Crystals of MarR polypeptides, regulators of multiple antibiotic resistance” (Trustees of Tufts College, priority 2001, dated 2007).
